The record followed here is US10005846 (LIFEARC, dated 2018).

The target in test [1] is T1, human transglutaminase type 2 (TG2) (human, UniProt P21980 1-687).
T1 sequence: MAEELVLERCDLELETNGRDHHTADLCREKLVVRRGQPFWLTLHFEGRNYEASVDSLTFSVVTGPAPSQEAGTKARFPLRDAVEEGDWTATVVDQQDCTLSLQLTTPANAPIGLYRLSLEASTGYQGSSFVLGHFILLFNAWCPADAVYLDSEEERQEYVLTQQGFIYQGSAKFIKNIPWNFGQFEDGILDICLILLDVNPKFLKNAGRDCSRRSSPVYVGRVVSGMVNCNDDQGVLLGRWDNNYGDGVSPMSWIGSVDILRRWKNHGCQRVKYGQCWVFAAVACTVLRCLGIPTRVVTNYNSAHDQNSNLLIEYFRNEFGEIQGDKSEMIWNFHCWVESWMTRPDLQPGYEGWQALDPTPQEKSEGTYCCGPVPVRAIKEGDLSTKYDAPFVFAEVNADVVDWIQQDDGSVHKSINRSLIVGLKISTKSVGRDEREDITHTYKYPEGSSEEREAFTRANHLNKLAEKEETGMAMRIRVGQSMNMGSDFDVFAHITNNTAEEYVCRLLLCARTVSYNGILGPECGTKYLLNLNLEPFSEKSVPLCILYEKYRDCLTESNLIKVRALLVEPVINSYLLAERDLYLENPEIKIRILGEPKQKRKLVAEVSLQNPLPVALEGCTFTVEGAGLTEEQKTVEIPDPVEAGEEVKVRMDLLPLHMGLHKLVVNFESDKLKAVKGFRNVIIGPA
Briefly: cell-based or functional assay.

A further test addresses T2, rat TG2 (rat, UniProt Q9WVJ6 1-686, limits assumed).
T2 sequence: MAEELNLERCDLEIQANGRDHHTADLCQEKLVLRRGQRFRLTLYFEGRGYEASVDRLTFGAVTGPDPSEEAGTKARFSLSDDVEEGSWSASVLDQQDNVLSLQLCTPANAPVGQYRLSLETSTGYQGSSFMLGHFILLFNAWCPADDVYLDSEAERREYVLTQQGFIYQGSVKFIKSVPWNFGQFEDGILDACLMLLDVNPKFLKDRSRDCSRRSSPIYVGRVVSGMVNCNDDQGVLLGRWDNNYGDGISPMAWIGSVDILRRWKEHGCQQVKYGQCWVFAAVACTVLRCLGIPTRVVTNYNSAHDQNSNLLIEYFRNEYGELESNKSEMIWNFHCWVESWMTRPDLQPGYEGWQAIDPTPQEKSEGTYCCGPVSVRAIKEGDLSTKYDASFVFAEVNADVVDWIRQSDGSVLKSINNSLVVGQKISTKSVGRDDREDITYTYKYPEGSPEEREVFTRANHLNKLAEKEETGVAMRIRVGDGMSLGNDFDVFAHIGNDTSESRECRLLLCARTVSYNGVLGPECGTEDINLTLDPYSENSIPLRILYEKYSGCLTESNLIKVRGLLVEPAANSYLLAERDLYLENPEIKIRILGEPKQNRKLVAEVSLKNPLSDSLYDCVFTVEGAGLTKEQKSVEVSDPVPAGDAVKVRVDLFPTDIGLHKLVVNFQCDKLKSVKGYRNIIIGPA
Briefly: cell-based or functional assay.

Where a chain is given by its changes, count along the chain named.

B1: AB1 murine monoclonal antibody (antibody, V domains shown)
VH: EVQLVESGGGLVKPGGSLKLSCAASGFTLSSSAMSWVRQTPDRRLEWVATISVGGGKTYYPDSVKGRFTISRDNAKNTLYLQMNSLRSEDTAMYYCAKLISLYWGQGTTLTVSS
VL: DIKMTQSPSSMYASLGERVTITCKASQDINSYLTWFQQKPGKSPKTLIYRTNRLFDGVPSRFSGSGSGQDFFLTISSLEYEDMGIYYCLQYDDFPYTFGGGTKLEIK
notes: Mouse hybridoma IgG; heavy chain amplified with constant region primer MHCG1, kappa light chain; also called mAB003
Regarding B1, the “IC50, 3H-putrescine incorporation assay” value in test [1] was 1.1e-05 mg/ml of IgG (to inhibit 1 ng of TG2).

B2: DC1 murine monoclonal antibody (antibody, V domains shown)
VH: EVQLVESGGGLVKPGGSLKLSCAASGFTLSTHAMSWVRQTPEKRLEWVATISSGGRSTYYPDSVKGRFTISRDNVKNTLYLQLSSLRSEDTAVYFCARLISTYWGQGTTLTVSS
VL: B1 VL with K3T, M11I, T46I, R50L, T51V, F55V, F71Y, F72A
notes: Mouse hybridoma IgG; heavy chain amplified with primer MHCG1, kappa light chain; also called mDC001
As for B2, in test [1], the “IC50, 3H-putrescine incorporation assay” value is 1.1e-05 mg/ml IgG per ng of recombinant TG2.

B3: BB7 murine monoclonal antibody (antibody, V domains shown)
VH: AVQLVESGGGLVKPGGSLKLSCAASGIIFSSSAMSWVRQTPEKRLEWVATISSGGRSTYYPDSVKGRFTVSRDSAKNTLYLQMDSLRSEDTAIYYCAKLISPYWGQGTTLTVSS
VL: B1 VL with D1A, T20I, R50L, F55M, D70E, F72L, S77G, Y80H, D92V
notes: Mouse hybridoma IgG; heavy chain amplified with primer MHCG1, kappa light chain; also called mBB001
On to B3, for which the “IC50 of TG2 activity, 3H putrescine incorporation” value (“IC50 of TG2 activity” below) with rat TG2 stood at 0.00032 mg/ml IgG per ng TG2.

B4: DD9 murine monoclonal antibody (antibody, V domains shown)
VH: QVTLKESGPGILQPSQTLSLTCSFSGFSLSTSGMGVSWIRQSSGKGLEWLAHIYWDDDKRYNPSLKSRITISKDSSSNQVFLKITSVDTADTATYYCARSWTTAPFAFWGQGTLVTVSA
VL: QIVLTQSPAIMSASPGEKVTMTCSASSSVDYMYWYQQKPGSSPRLLIYDTSNLASGVPVRFSGSGSGTSYSLTISRMGAEDAATYYCQQWNSSPLTFGAGTKLELK
notes: Mouse hybridoma IgG; heavy chain amplified with primer MHCG2A, kappa light chain; also called mDD9001
Take B4: the “IC50 of TG2 activity” value in the test with rat TG2 was 0.000303 mg/ml IgG per ng TG2.

B5: JE12 murine monoclonal antibody (antibody, V domains shown)
VH: EVQLQQSGPELVKPGASVKMSCKASGYRFTSYVMHWVKQKSGQGLEWIGYINPYNDGAKYNEKFKGKATLTSDKSSSTAYMELSSLTSEDSAVYYCARLSSDYWGQGTTLTVSS
VL: DVLMTQNPLSLPVSLGDQASISCRSSQSIEHINGNTYLEWYLQKPGQSPKFLIYKVSNRFSGVPDRFSGSGSGTDFTLRISRVEAEDLGIYYCFQGSHVPFTFGGGTKLEIK
notes: Mouse hybridoma IgG; heavy chain amplified with primer MHCG1, kappa light chain
Take B5: in test [1], the “IC50, 3H-putrescine incorporation assay” value is 0.000123 mg/ml of IgG (to inhibit 1 ng of TG2).

B6: EH6 murine monoclonal antibody (antibody, V domains shown)
VH: B5 VH with R28T, S41P, Y50F, A58T, S75A, S77T, L99F, D102G
VL: B5 VL with N7T, E30V, I32S, F51L, R79K, E84G, I90V, F94L, G96V, G105S
notes: Mouse hybridoma IgG; heavy chain amplified with primer MHCG2B, kappa light chain
On to B6, for which the “IC50 of TG2 activity” value in the test with rat TG2 was 0.000403 mg/ml IgG per ng TG2.
